Results published in patent US20260028421A1 (JIANGSU HENGRUI PHARMACEUTICALS, published 2026).
Substitutions are numbered along the chain they refer to. Where two headings read alike, the source gives them in different places.

B1: P1-D2 CHI (antibody, human IgG1, kappa, V domains shown)
VH: EFQLQQSGPELVKPGASVKISCKASGYSFTDHNMNWVKQSNGKSLEWIGVINPKYGTISNNQKFKGKATLTVDQSSSTAYMQLNSLTAEDSAVYYCARDDYPNYFDYWGQGTTLTVSS
VL: QIVLTQSPAIMSASPGEKVTISCSANSSVNYIYWYQQKPGSSPKPWIYRTSNLASGVPARFSGSGSGTSYSLTISSMEAEDAATYYCQQYHSFPPTFGGGTKLEIKR
notes: chimeric
B2: P3-F6 CHI (antibody, human IgG1, kappa, V domains shown)
VH: EVQLQQSGPELVKPGASVKISCKASGYTFTDYYMNWVKQSHGKSLEWIGDINPNNGGTSYNQKFKGKATLTVDKSSSTAYMELRSLTSEDSAVYYCARKTWLPYASVYWGQGTSVTVSS
VL: DVVMTQTPLSLPVSLGDQASISCRSSQSLVHSNGNTYLHWYLQKPGQSPKLLIYKVSNRFSGVPDRFSGSGSGTDFTLKISRVEAEDLGVYFCSQSTHVPPYTFGGGTKLEIKR
notes: chimeric
B3: HJ-8 (bispecific antibody)
chain 1: not shown
chain 2: DIQMTQSPSSVSASVGDRVTITCRASQDIANYLSWYQQKPGKSPKLLIYGTSNLEVGVPSRFSGSRSGTDFTLTISSLQPEDFATYYCLQDKEFPRTFGGGTKVEIKRTVASSGAPRFLTRPKASVVSVGKDATLSSQIVGNPFPQVSWEKDKQPVTAGVRFRLAQDGDLYRLKILDLQLSDSGQYVSRARNAHGEAFACLGLQVDAEA
chain 3: EVQLVQSGAEVKKPGSSVKVSCKASGYTFSNYLIEWVRQAPGQGLEWIGVIDPGVGDTNYNENFKGRATLTADKSTSTAYIELSSLRSEDTAVYYCAREDNTGTAFDYWGQGTTVTVSSASTKGPSVFPLAPSSKSTSGGTAALGCLVKDYFPEPVTVSWNSGALTSGVHTFPAVLQSSGLYSLSSVVTVPSSSLGTQTYICNVNHKPSNTKVDKKVEPKSCDKTHTCPPCPAPEAAGGPSVFLFPPKPKDTLMISRTPEVTCVVVDVSHEDPEVKFNWYVDGVEVHNAKTKPREEQYNSTYRVVSVLTVLHQDWLNGKEYKCKVSNKALPAPIEKTISKAKGQPREPQVCTLPPSREEMTKNQVSLSCAVKGFYPSDIAVEWESNGQPENNYKTTPPVLDSDGSFFLVSKLTVDKSRWQQGNVFSCSVMHEALHNHYTQKSLSLSPGK
chain 4: SIVMTQTPLSLSVTPGQPASISCKASQSVSSDVTWYLQKPGQSPQLLIYYVSEHYTGVPDRFSGSGYGTDFTLKISRVEAEDVGVYYCQQHHRFPLTFGQGTKLEIKRTVAAPSVFIFPPSDEQLKSGTASVVCLLNNFYPREAKVQWKVDNALQSGNSQESVTEQDSKDSTYSLSSTLTLSKADYEKHKVYACEVTHQGLSSPVTKSFNRGEC
B4: HJ-10 (bispecific antibody)
chain 1: not shown
chain 2: B3 chain 2 with S137C, S188C
chain 3: B3 chain 3
chain 4: B3 chain 4
B5: HJ-11 (bispecific antibody)
chain 1: not shown
chain 2: B3 chain 2 with A115C, S137C, S188C
chain 3: B3 chain 3
chain 4: B3 chain 4
B6: HJ-9 (bispecific antibody)
chain 1: not shown
chain 2: B3 chain 2 with R121C
chain 3: B3 chain 3
chain 4: B3 chain 4
B7: P3-C7 L7H1 (antibody, human IgG1, kappa, V domains shown)
VH: EVQLVQSGAEVKKPGASVKVSCKASGYTFTDHYIHWVRQAPGQGLEWMGVINPYNDGATYNQKFKGRVTMTVDKSTSTVYMELSSLRSEDTAVYYCARPPRAYGNYAGYWGQGTTVTVSS
VL: DVVMTQTPLSLPVTPGEPASISCRSSQSLVHSNQNTYLHWYLQKPGQSPQLLIYKVSNRFSGVPDRFSGSGSRTDFTLKISRVEAEDVGVYYCSQSTHVPYTFGGGTKVEIKR
notes: humanized, human IgG1/kappa
B8: P1-F10 CHI (antibody, human IgG1, kappa, V domains shown)
VH: EVQLVESGGGLVKPGGSLKLSCAASGFAFSDYGMHWVRQAPEKGLEWVAHISSGSSTIYYADTVKGRFTISRDNVKNTLFLQMTSLRSEDTAMYYCARSRNYYGSRVFDYWGQGTPLTVSS
VL: QIVLTQSPALMSVSPGEKVTMTCSASSSVNYMYWYQQKPRSSPKPWIYLTSNLASGVPARFSGSGSGTSYSLTISSMEAEDAATYYCQQWNSNPPTFGSGTKLEIKR
notes: chimeric
B9: P1-D9 CHI (antibody, human IgG1, kappa, V domains shown)
VH: B8 VH with A28S, V48I, V75A, V107I, P116T
VL: B8 VL with L10R, V13A, N30S, N91S
notes: chimeric
B10: P3-D9 CHI (antibody, human IgG1, kappa, V domains shown)
VH: B8 VH with A61G, V75A, A97T, P116T
VL: B8 VL with N30S, N52S, S75N, S76N, M77V, N91S, L103V
notes: chimeric
B11: 146 L1H1 (antibody, human IgG1, kappa, V domains shown)
VH: EFQLVQSGAEVKKPGASVKVSCKASGYSFTDYNMNWVRQAPGQRLEWMGLINPKYGTTNYNQKFKGRVTLTVDQSSSTAYMELSSLRSEDTAVYYCARDNYPAWFAYWGQGTTVTVSS
VL: EIVLTQSPATLSLSPGERATLSCSASSSLNYMYWYQQKPGSSPRPWIYRTSQLASGVPARFSGSGSGTDYTLTISSLEPEDFAVYYCQQYHSYPPTFGGGTKVEIKR
notes: humanized, human IgG1/kappa
B12: 1608 (antibody, human IgG1, kappa, V domains shown)
VH: EVQLVESGGGLVQPGGSLRLSCAASGFTFSSYWMHWVRQAPGKGLEWIGEIKPSNELTNVHEKFKDRFTISVDKAKNSAYLQMNSLRAEDTAVYYCTRTITTTEGYWFFDVWGQGTLVTVSS
VL: DIQLTQSPSSLSASVGDRVTITCRASESVDYYGSSLLQWYQQKPGKAPKLLIYAASKLASGVPSRFSGSGSGTDFTLTISSLQPEDFATYYCQQTRKAYTFGQGTKLEIKR
B13: 81 L3H1 (antibody, human IgG1, kappa, V domains shown)
VH: EVQLVQSGAEVKKPGASVKVSCKASGYTFTDHNMNWVKQAPGQRLEWMGVMNPKFGTINYNQKFKDKATITRDTSASTAYMELSSLRSEDTAVYYCARDNYPNYFDYWGQGTTVTVSS
VL: DIQLTQSPSFLSASPGDRVTITCSASSSVNYMYWYQQKPGSSPKSWIYRTSNLASGVPSRFSGSGSGTEYTLTISSLQPEDFATYYCQQYHDYPPTFGGGTKVEIKR
notes: humanized, human IgG1/kappa
B14: P1-D3 CHI (antibody, human IgG1, kappa, V domains shown)
VH: QIQLIQSGPELKKPGETVKISCKASGYTFTTYGMSWVKQAPGKGLKWMGWINTYSGVPTYADDFKGRFAFSLETSANTAYLQINNLKNEDTATYFCARRGYSNLYYYALDYWGQGASVTVSS
VL: QIVLTQSPAIMSASPGEKVTMTCSASSSVNYMHWYQQKSGTSPKRWIYDTSKLASGVPTRFSGSGSGTSYSLTISSMEAEDAATYFCQQWSSNPSTFGGGTKLEIKR
notes: chimeric
B15: P3-B4 CHI (antibody, human IgG1, kappa, V domains shown)
VH: B14 VH with I5V, T17I, N77S, G100A, Y101G, N103S, L109M, A116T
VL: B14 VL with N30S, H33L, T59A, F86Y, S95P
notes: chimeric

Legend:
[1] = target: T1, hGUCY2C ECD-His (human, UniProt P25092 24-430); test: SPR Biacore, antibody captured
T1 construct: also called human GUCY2C protein
Source text: To test the affinity of the GUCY2C monoclonal antibodies of the present disclosure for GUCY2C, in this test example, the instruments Biacore 8K and Biacore T200 were used to detect the ability of the antibodies to bind to hGUCY2C-ECD-His (SEQ ID NO: 3). The specific method is as follows: The antibody was affinity-captured using a Protein A biosensor chip conjugated with an anti-human antibody, then a solution containing GUCY2C Protein flowed on the surface of the chip, and reaction signals were detected in real time with an instrument to obtain association and dissociation curves. After dissociation was completed for each cycle, the biosensor chip was washed with 10 mM glycine-hydrochloric acid (pH 1.5) for regeneration. Data fitting was performed using a 1:1 model.

[2] = target: T2, Human GUCY2C protein on cells (HCT116/hGUCY2C, HT-55, T84, LS1034, LS174T) (human, UniProt P25092 24-1073); test: flow cytometry on HCT116/hGUCY2C cells, PE anti-human IgG Fc secondary antibody
T2 construct: also called GUCY2C on the cell surface

[3] = target: T2, Human GUCY2C protein on cells …; test: as above; remark: listed apart in the source
[4] = target: hTSLP (human, UniProt Q969D9 29-159); test: ELISA
[5] = target: hIL5 (human, UniProt P05113 20-134); test: ELISA
[6] = target: T1, hGUCY2C ECD-His; test: competition ELISA, row antibody coated; competitor P3-C7 L7H1-biotinylated
[7] = target: T2, Human GUCY2C protein on cells …; test: flow cytometry on HCT116/hGUCY2C cells, PE anti-human IgG Fc secondary antibody; remark: listed apart in the source
[8] = target: T1, hGUCY2C ECD-His; test: competition ELISA, row antibody coated; competitor 81 L3H1-biotinylated
[9] = target: T1, hGUCY2C ECD-His; test: competition ELISA, row antibody coated; competitor 1608-biotinylated
[10] = target: T1, hGUCY2C ECD-His; test: competition ELISA, row antibody coated; competitor 146 L1H1-biotinylated

| Binder | Kd [1] [nM] | koff [1] [s⁻¹] | kon [1] [M⁻¹ s⁻¹] | EC50 (read off the curve) [2] [nM] | EC50 (read off the curve) [3] [nM] | EC50 [4] [nM] | EC50 [5] [nM] | relative competition coefficient [6] | EC50 (read off the curve) [7] [nM] | relative competition coefficient [8] | relative competition coefficient [9] | relative competition coefficient [10] |
| --- | --- | --- | --- | --- | --- | --- | --- | --- | --- | --- | --- | --- |
| B1 | 0.92 | 0.00018 | 195000 | ~0.7 |  |  |  |  |  |  |  |  |
| B2 | 37 | 0.000245 | 6610 |  | ~2 |  |  |  |  |  |  |  |
| B3 |  |  |  |  |  | 3.33 | 18.7 |  |  |  |  |  |
| B4 |  |  |  |  |  | 3.17 | 20.8 |  |  |  |  |  |
| B5 |  |  |  |  |  | 3 | 9.46 |  |  |  |  |  |
| B6 |  |  |  |  |  | 3.18 | 10.9 |  |  |  |  |  |
| B7 | 7.77 | 0.000186 | 23900 |  |  |  |  | 100 | ~2 | 6 | 10 | 13 |
| B8 | 8.64 | 0.000279 | 32300 | ~0.6 |  |  |  |  |  |  |  |  |
| B9 | 19.6 | 0.000399 | 20300 | ~0.7 |  |  |  |  |  |  |  |  |
| B10 | 26.5 | 0.000504 | 19000 |  | ~1 |  |  |  |  |  |  |  |
| B11 | 0.92 | 0.000117 | 127000 |  |  |  |  | 4 | ~2 | 99 | 12 | 100 |
| B12 |  |  |  | ~0.3 | ~0.3 |  |  | 3 | ~0.3 | 6 | 100 | 12 |
| B13 | 0.29 | 5.19e-05 | 181000 |  |  |  |  | 3 | ~1 | 100 | 11 | 81 |
| B14 | 5.06 | 0.000233 | 46000 | ~1 |  |  |  |  |  |  |  |  |
| B15 | 8.28 | 0.000214 | 25800 |  | ~2 |  |  |  |  |  |  |  |
